Data reported in patent US12699101B2, “Maximizing hydrophobic peptide recovery using a mass spectrometry compatible surfactant” (Regeneron Pharmaceuticals, Inc., priority 2022, dated 2026).
Values belong to the substance of their own block, whether it stands above or below them. Where no end group is shown, it is not given here.

Assay: PRM target quantification of synthetic mAb peptide standards diluted with DDM, FA or cell digest matrix
Type: physicochemical
Settings: 10 fmol/μl peptide mixture, triplicate; for Ratio of Average Peak Area DDM Diluted/FA Diluted: 0.015% DDM vs 0.1% FA (control); for Ratio of Average Peak Area Matrix Diluted/FA Diluted: complex HeLa cell lysate digest matrix vs 0.1% FA (control)
Method: HeLa cell lysate protein digests were diluted to 0.05 ng/μL by 0.1% FA or 0.015% DDM solution, and 0.2 ng (4 μL) was injected onto the LC-MS to simulate single cell sample analysis. Sixteen synthetic peptides from a mAb's constant region and CDR were diluted and mixed to a final concentration of 10 fmol/μL by 0.1% FA, 0.015% DDM solution or complex cell digest matrix. In reconstitution experiments, 20 μL of 500 fmol/μL BSA digests and 200 ng/μL HeLa digests were aliquoted into vials and dried in vacuo. Dried samples were reconstituted by 0.1% FA or 0.015% DDM solution. One picomole BSA digests and 100 ng HeLa digests were loaded onto the column for nanoLC-MS/MS analysis.
PRM target quantification was performed on an Orbitrap Exploris 480 mass spectrometer equipped with an UltiMate 3000 RSLCnano system and 75 μm ID×25 cm C18 column (CoAnn Technologies, 360 μm OD). A short gradient with a flow rate of 0.3 μL/min was set up as follows: 5% B at 0 min, 8% B at 3 min, 40% B at 20 min, and 95% B from 30-35 min. The m/z of the most intense surrogate peptide peak was selected for PRM analysis with 5 minutes windows. MS/MS spectra were acquired using HCD with a normalized collision energy of 30% at a resolution of 30K (m/z 200) and a maximum injection time of 100 ms.
Database searches for protein identification were performed using SEQUEST and Mascot embedded into Proteome Discoverer 2.2 (Thermo Fisher Scientific). The human UniProt target-decoy protein database including common contaminants was used for HeLa sample database searches. Precursor ion mass tolerance was set to 20 ppm and fragment ion mass tolerance was set to 0.02 Da. Trypsin was specified as the digestion enzyme during the database search with one missed cleavage allowed. Methionine oxidation (+16 Da) was selected as a variable modification and cysteine carbamidomethylation was chosen as a fixed modification for the normal (alkylated) digests. False discovery rates (FDRs) were set to 1% for peptide identification and 5% for protein identification. Peptide mapping and BSA sample data were analyzed using Protein Metrics Byonic™ (version 3.11.3) by searching the raw files against the mAb or BSA protein sequence. All peptide quantification was executed using Skyline Daily software (University of Washington, WA) by extracting the MS' peak area of all detected charge states. The three most intense fragment peaks free of interference were selected for PRM target quantification. Empower (Milford, MA) was employed to extract UV chromatogram peak areas. The peptide hydrophobicity was calculated using the Peptide Synthesis and Proteotypic Peptide Analyzing Tool from ThermoFisher Scientific (Waltham, MA). GraphPad Prism 9.0.2 (San Diego, CA) was used for correlation analysis and p-value calculation.
In order to optimize a method for characterizing peptides for PK studies, sixteen peptides from different mAb molecules, including 13 CDR peptides and three constant region peptides, were selected and synthesized. Information for the synthetic peptide standards, including stock concentration, dilution, hydrophobicity index value, and retention time is shown in Table 1. All synthetic peptide standards were diluted and mixed as a single peptide mixture with a final concentration of 10 fmol/μl using either a DDM solution, formic acid solution (control) or complex HeLa cell lysate digest matrix. PRM acquisition was then used to quantify the peak area of these 16 target peptides and compare results between different samples. Detailed PRM setting information is listed in Table 2 including m/z value and charge states of each target peptide. Each sample was analyzed in triplicate, and average peak areas for each peptide from the DDM prepared samples and matrix prepared samples were compared with the control samples.

- Ratio of Average Peak Area DDM Diluted/FA Diluted: 0.7
- Ratio of Average Peak Area Matrix Diluted/FA Diluted: 1.1
Substance: NQVSLTCLVK [synthetic mAb constant region peptide standard]

Substance: VTISCTGSSSNIGTHY [synthetic mAb CDR peptide standard]
- Ratio of Average Peak Area DDM Diluted/FA Diluted: 1.1
- Ratio of Average Peak Area Matrix Diluted/FA Diluted: 1.4

Substance: DTAVYYCASGS [synthetic mAb CDR peptide standard]
- Ratio of Average Peak Area DDM Diluted/FA Diluted: 0.9
- Ratio of Average Peak Area Matrix Diluted/FA Diluted: 0.6

Substance: LSCAASGFTFSNYAMYWVR [synthetic mAb CDR peptide standard]
- Ratio of Average Peak Area DDM Diluted/FA Diluted: 29.4
- Ratio of Average Peak Area Matrix Diluted/FA Diluted: 9.2

Substance: DIATYYCQQH [synthetic mAb CDR peptide standard]
- Ratio of Average Peak Area DDM Diluted/FA Diluted: 1.1
- Ratio of Average Peak Area Matrix Diluted/FA Diluted: 1.4

Substance: LLIYDASNLK [synthetic mAb CDR peptide standard]
- Ratio of Average Peak Area DDM Diluted/FA Diluted: 1.2
- Ratio of Average Peak Area Matrix Diluted/FA Diluted: 1.4

Substance: VVSVLTVLHQDWLNGK [synthetic mAb constant region peptide standard]
- Ratio of Average Peak Area DDM Diluted/FA Diluted: 12.1
- Ratio of Average Peak Area Matrix Diluted/FA Diluted: 33.2

Substance: TNYLTHR [synthetic mAb CDR peptide standard]
- Ratio of Average Peak Area DDM Diluted/FA Diluted: 1.7
- Ratio of Average Peak Area Matrix Diluted/FA Diluted: 0.4

Substance: GLEWVAVISYDGSNK [synthetic mAb CDR peptide standard]
- Ratio of Average Peak Area DDM Diluted/FA Diluted: 10.3
- Ratio of Average Peak Area Matrix Diluted/FA Diluted: 4.7

Substance: LMIYDVSK [synthetic mAb CDR peptide standard]
- Ratio of Average Peak Area DDM Diluted/FA Diluted: 1.1
- Ratio of Average Peak Area Matrix Diluted/FA Diluted: 1.3

Substance: TNYLKPTHQTNTIIDVVLSPSH [synthetic mAb constant region peptide standard]
- Ratio of Average Peak Area DDM Diluted/FA Diluted: 18.4
- Ratio of Average Peak Area Matrix Diluted/FA Diluted: 32.1

Substance: LLIYAASNLETGVPSR (also: Arg16 stable isotope labeled, +10 Da) [synthetic mAb CDR peptide standard]
- Ratio of Average Peak Area DDM Diluted/FA Diluted: 5.5
- Ratio of Average Peak Area Matrix Diluted/FA Diluted: 2.7

Substance: DNSLTAPYVFGTGTK [synthetic mAb CDR peptide standard]
- Ratio of Average Peak Area DDM Diluted/FA Diluted: 1.4
- Ratio of Average Peak Area Matrix Diluted/FA Diluted: 1.1

Substance: DWNQNNWF [synthetic mAb CDR peptide standard]
- Ratio of Average Peak Area DDM Diluted/FA Diluted: 2.4
- Ratio of Average Peak Area Matrix Diluted/FA Diluted: 3.0

Substance: LSCAASGITFSNAWMSWVR [synthetic mAb CDR peptide standard]
- Ratio of Average Peak Area DDM Diluted/FA Diluted: 37.9
- Ratio of Average Peak Area Matrix Diluted/FA Diluted: 16.9
